In US6680291:
Substitutions are numbered along the chain they refer to.

B1: recombinant human CNTF (ligand)
chain: MAFTEHSPLTPHRRDLCSRSIWLARKIRSDLTALTESYVKHQGLNKNINLDSADGMPVASTDQWSELTEAERLQENLQAYRTFHVLLARLLEDQQVHFTPTEGDFHQAIHTLLLQVAAFAYQIEELMILLEYKIPRNEADGMPINVGDGGLFEKKLWGLKVLQELSQWTVRSIHDLRFISSHQTGIPARGSHYIANNKKM
notes: also called rHCNTF; hCNTF
B2: RPN187 (ligand)
chain: B1 chain with T4A, H6Q, S7T, P11L, T35M
notes: Chimeric CNTF
B3: RPN218 (ligand)
chain: B1 chain with T35M, A53V, M56V, Q63R, L67M
notes: Chimeric CNTF
B4: RPN219 (ligand)
chain: B1 chain with A53V, M56V, Q63R, L67M
notes: Expressed in E. coli; also called CNTF RPN219
B5: RPN222 (ligand)
chain: B1 chain with A53V, L67M
notes: Chimeric CNTF
B6: RPN228 (ligand)
chain: B1 chain with Q63R
notes: Expressed in E. coli; also called RG228; rHCNTF,63QR
B7: recombinant rat CNTF (ligand)
chain: MAFAEQTPLTLHRRDLCSRSIWLARKIRSDLTALMESYVKHQGLNKNINLDSVDGVPVASTDRWSEMTEAERLQENLQAYRTFQGMLTKLLEDQRVHFTPTEGDFHQAIHTLMLQVSAFAYQLEELMVLLEQKIPENEADGMPATVGDGGLFEKKLWGLKVLQELSQWTVRSIHDLRVISSHQMGISALESHYGAKDKQM
notes: also called unlabelled rat CNTF
B8: RPN186 (ligand)
chain: B7 chain with A4T, Q6H, T7S, L11P, M35T
notes: Chimeric CNTF
B9: RPN189 (ligand)
chain: B7 chain with V178F, M184T, S187P, L189R, E190G, G194I, K196N, D197N, Q199K
notes: Chimeric CNTF
B10: RPN192 (ligand)
chain: MAFTEHSPLTPHRRDLCSRSIWLARKIRSDLTALTESYVKHQGLNKNINLDSADGMPVASTDQWSELTEAERLQENLQAYRTFQGMLTKLLEDQRVHFTPTEGDFHQAIHTLMLQVSAFAYQLEELMVLLEQKIPENEADGMPATVGDGGLFEKKLWGLKVLQELSQWTVRSIHDLRFISSHQTGIPARGSHYIANNKKM
notes: Chimeric CNTF

Columns and labels:
[1] = target: T1, rat CNTF receptor on rat superior cervical ganglia (SCG) neurons (rat, UniProt Q08406 23-342); test: competition with 125I-rat CNTF on rat SCG neurons
T1 construct: whole, on cells; The neurons carry the endogenous receptor, and the other receptor components may also be present; also called rat receptor
T1 sequence (looked up): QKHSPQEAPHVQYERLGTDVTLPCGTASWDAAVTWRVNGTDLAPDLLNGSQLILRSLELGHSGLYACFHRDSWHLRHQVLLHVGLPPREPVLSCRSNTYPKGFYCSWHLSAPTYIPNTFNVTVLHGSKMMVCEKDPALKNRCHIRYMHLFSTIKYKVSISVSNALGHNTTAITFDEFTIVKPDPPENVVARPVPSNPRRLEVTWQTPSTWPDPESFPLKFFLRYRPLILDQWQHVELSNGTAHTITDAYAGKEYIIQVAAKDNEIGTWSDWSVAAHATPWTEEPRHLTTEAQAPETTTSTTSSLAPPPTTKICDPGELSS
Description: Growth medium consisted of Ham's nutrient mixture F12 with 10% heat-inactivated fetal bovine serum (Hyclone), nerve growth factor (NGF) (100 ng/ml), penicillin (50 U/ml) and streptomycin (50 µg/ml). Cultures were maintained at 37° C. in a humidified 95% air/5% CO_2 atmosphere. Ganglion non-neuronal cells were eliminated by treatment with araC (10 µM) on days 1 and 3 of culture. Cultures were fed 3 times/week and were routinely used for binding assays within 2 weeks.
(§1) Binding was performed directly on cell monolayers. Cells in culture wells were washed once with assay buffer consisting of phosphate buffered saline (PBS; pH 7.4), 0.1 mM bacitracin, 1 mM PMSF, 1 µg/ml leupeptin, and 1 mg/ml BSA. […] Non-specific binding was determined in the presence of 1,000-fold excess of unlabelled CNTF. Specific binding towards MG87/CNTFR was 80–90%. Data were analyzed using the […] program (ISI, Philadelphia, Pa.).

[2] = target: T2, human CNTF receptor alpha-component on MG87/CNTFR fibroblasts (human, UniProt P26992 23-342); test: competition with 125I-rat CNTF on MG87/CNTFR cells
T2 construct: whole, on cells; Mouse fibroblast cell line transfected with the human CNTF alpha receptor gene; also called CNTFRalpha; MG87/huCNTFR
T2 sequence (looked up): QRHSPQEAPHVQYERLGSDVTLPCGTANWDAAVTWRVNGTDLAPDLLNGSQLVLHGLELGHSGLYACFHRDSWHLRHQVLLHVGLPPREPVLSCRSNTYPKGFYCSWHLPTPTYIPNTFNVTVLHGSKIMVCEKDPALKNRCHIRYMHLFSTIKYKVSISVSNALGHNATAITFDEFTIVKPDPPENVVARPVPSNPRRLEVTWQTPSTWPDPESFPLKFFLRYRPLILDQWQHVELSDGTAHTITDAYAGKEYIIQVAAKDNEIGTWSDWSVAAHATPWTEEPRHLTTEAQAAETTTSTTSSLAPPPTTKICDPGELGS
Description: as §1

[3] = target: T2, human CNTF receptor alpha-component on …; test: competition binding experiments, data not shown; cells not given

Row | Binder | IC50 [1] | IC50 [2] | binding result [3] | other results
1 | B1 | 25 nM | 30 nM |  | fold less potent than unlabelled rat CNTF [1]: 90 fold; fold less potent than rat CNTF [2]: 12 fold
2 | B2 |  |  | binds | 
3 | B3 |  |  | binds | 
4 | B4 | 0.3 nM |  |  | 
5 | B5 |  |  | binds | 
6 | B6 |  | 5.6 nM |  | 
7 | B7 | 0.28 nM | 2.8 nM |  | 
8 | B8 |  |  | binds | 
9 | B9 |  |  | binds | 
10 | B10 |  |  | binds | 
